Results taken from doi:10.1101/2025.09.11.675649.

Target: Amuc1033^6S-GlcNAc (Akkermansia muciniphila) (UniProt B2UQX4)
Experiment: SEC-MALS

**Q.** With “Amuc1033^6S-GlcNAc (from UniProt B2UQX4 1-581) (enzyme)” as the substance, how does the stoichiometry N read?
**A.** Its stoichiometry N is 2.
